# Experimental data reported in paper PMC9561264, “Direct hOGG1-Myc interactions inhibit hOGG1 catalytic activity and recruit Myc to its promoters under oxidative stress”.
# Columns and labels:
# Settings in all cases: protein: recombinant; tags: N-terminal His6 (removed by protease where required); label: 5' AF647 (FP) or Cy3 (EMSA) on bottom strand; blunt
# hOGG1 wild type [1] = target: T1, hOGG1 wild type (human, UniProt O15527 1-345); test: fluorescence polarisation; reducing; FP at 25°C with 5 nM labelled DNA; EMSA room temp 30 min, 15% native PAGE 0.5x TBE 4°C; interaction buffer 20 mM Tris-HCl pH 7.6, 200 mM NaCl (Fig. S12); reducing (5 mM DTT in EMSA) or oxidising (pre-oxidised hOGG1)
# T1 sequence (O15527 whole entry): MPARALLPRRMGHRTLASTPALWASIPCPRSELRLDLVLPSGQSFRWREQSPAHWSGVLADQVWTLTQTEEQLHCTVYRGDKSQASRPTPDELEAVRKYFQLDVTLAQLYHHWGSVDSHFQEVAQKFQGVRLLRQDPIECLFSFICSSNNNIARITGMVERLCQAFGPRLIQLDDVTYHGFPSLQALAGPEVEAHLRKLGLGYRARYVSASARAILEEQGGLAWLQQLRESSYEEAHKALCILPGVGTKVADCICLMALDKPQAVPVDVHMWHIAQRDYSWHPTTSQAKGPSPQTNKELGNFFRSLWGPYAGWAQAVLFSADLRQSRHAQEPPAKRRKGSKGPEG
# hOGG1 wild type [2] = target: T1, hOGG1 wild type; test: fluorescence polarisation; oxidising, pre-oxidised hOGG1; FP at 25°C with 5 nM labelled DNA; EMSA room temp 30 min, 15% native PAGE 0.5x TBE 4°C; interaction buffer 20 mM Tris-HCl pH 7.6, 200 mM NaCl (Fig. S12); reducing (5 mM DTT in EMSA) or oxidising (pre-oxidised hOGG1)
# hOGG1 wild type [3] = target: T1, hOGG1 wild type; test: fluorescence polarisation; oxidising; FP at 25°C with 5 nM labelled DNA; EMSA room temp 30 min, 15% native PAGE 0.5x TBE 4°C; interaction buffer 20 mM Tris-HCl pH 7.6, 200 mM NaCl (Fig. S12); reducing (5 mM DTT in EMSA) or oxidising (pre-oxidised hOGG1)
Binder,Kd (hOGG1 wild type [1]),Kd (hOGG1 wild type [2]),Kd (hOGG1 wild type [3])
"oxoG 48 bp (EMSA/FP) (dsDNA, 8-oxoguanine at position 10 of strand 1 (written G)) DNA 1: GCATGCCTCGAGTCTAGAGGTACCAGATCTGATCCTCTAGAGTCGACC DNA 2: GGTCGACTCTAGAGGATCAGATCTGGTACCTCTAGACTCGAGGCATGC",66 ± 5 nM,140 ± 9 nM,
undamaged (nsp) 48 bp (dsDNA) DNA 1: GCATGCCTCGAGTCTAGAGGTACCAGATCTGATCCTCTAGAGTCGACC DNA 2: GGTCGACTCTAGAGGATCAGATCTGGTACCTCTAGACTCGAGGCATGC,252 ± 43 nM,,250 ± 18 nM
